{"source": "patent US20260217795A1", "about": "(NANJING GENSCRIPT BIOTECH, published 2026)", "binders": {"B1": {"name": "5G4-1 monoclonal antibody (antibody, V domains shown)", "VH": "QSVKESEGGLFKPADTLSLTCTVSGFSLNNNDMSWVRQAPGNGLEYIGVMSSGGRLYAATWAKSRFTITRNTNLGTVTLKLTSLTAADTATYFCARGSPSSNRGIDIWGPGTLVTVSS", "VL": "LTQTPSSVSAPVGGTVSINCQSDKSVYADNYLSWYQQTPGQPPKLLIYKASTLASGIPSRFKGSGSGTQFTLAISDVQCDDAATYYCAGGYSGNSDNGFGGGTEVVVR", "notes": "Rabbit monoclonal antibody, made recombinantly in ExpiCHO-S cells, purified on protein A as IgG and detected with anti-rabbit IgG (Fc-specific); also called clone 5G4-1"}, "B2": {"name": "24F7-1 monoclonal antibody (antibody, V domains shown)", "VH": "QSLRESEGGLFKPADTLTLTCTVSGFSITAYNVGWVRQAPGKGLEWIGVIDISGATFYATWAKSRSTITRDTSLNTVTLKMTSLTAADTATYFCTRDPAFIWGPGTLVTVSS", "VL": "DVVMTQTPASVEAAVGGTVTIKCQASQSVSSYLAWYQQKPGQPPKLLIYRASTLASGVPSRFKGSGSGTEFTLTISDLECADAATYYCQSYVYSNVLTYFNAFGGGTGVVVK", "notes": "Rabbit monoclonal antibody, made recombinantly in ExpiCHO-S cells, purified on protein A as IgG and detected with anti-rabbit IgG (Fc-specific); also called clone 24F7-1"}}, "assay_in_all_cases": "indirect ELISA, VLP coated at 1 ug/mL, antibody in 3-fold dilutions from 1 ug/mL", "key": {"[1]": {"molecular_target": "T1, AAV9 virus-like particle (VLP) (adeno-associated virus 9)", "T1 construct": "VLP self-assembled from VP1, VP2 and VP3 expressed in 293T cells; coated on ELISA plates; also called VLP of AAV9"}, "[2]": {"molecular_target": "T2, recombinant rh.1-type AAV virus-like particles (AAVrh.1 VLP) (adeno-associated virus rh.1 (isolated …))", "T2 construct": "The immunogen; VLP self-assembled from VP1, VP2 and VP3 expressed in 293T cells; coated on ELISA plates; also called rh.1-serotype AAV", "T2 chain 1": "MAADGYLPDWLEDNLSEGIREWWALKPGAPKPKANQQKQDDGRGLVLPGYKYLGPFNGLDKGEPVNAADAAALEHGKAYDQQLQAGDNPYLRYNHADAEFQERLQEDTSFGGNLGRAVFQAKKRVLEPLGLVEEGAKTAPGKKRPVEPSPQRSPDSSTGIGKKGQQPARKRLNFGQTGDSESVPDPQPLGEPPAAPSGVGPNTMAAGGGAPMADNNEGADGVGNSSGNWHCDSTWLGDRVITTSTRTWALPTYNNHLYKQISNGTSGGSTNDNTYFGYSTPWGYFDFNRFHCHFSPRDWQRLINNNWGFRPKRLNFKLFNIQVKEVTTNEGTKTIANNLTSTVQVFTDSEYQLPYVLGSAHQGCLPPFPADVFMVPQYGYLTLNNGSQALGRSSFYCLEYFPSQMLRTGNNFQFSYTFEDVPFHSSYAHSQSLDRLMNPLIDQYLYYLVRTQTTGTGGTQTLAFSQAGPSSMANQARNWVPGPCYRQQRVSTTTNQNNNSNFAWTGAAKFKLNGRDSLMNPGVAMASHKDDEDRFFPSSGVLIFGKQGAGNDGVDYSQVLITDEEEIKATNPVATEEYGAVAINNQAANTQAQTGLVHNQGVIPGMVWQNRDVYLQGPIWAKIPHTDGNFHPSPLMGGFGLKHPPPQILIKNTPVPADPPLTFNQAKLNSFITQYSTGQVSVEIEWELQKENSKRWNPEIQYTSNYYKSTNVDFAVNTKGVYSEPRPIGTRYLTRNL", "T2 chain 2": "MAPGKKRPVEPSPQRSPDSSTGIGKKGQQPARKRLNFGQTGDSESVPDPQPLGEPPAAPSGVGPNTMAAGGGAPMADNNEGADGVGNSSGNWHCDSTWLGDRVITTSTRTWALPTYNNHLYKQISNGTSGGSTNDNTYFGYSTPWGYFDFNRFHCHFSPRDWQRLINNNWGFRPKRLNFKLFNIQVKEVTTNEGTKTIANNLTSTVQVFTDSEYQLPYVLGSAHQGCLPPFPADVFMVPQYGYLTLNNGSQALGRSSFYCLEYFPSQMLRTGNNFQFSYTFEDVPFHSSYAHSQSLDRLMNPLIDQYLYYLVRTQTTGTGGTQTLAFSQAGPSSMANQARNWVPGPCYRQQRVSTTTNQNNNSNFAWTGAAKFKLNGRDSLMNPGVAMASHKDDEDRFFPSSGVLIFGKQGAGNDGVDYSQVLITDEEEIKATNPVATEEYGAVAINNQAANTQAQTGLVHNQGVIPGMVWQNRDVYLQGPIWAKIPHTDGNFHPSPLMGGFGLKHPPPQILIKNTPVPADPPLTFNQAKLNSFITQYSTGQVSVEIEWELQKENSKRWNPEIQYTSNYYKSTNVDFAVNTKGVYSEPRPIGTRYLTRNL", "T2 chain 3": "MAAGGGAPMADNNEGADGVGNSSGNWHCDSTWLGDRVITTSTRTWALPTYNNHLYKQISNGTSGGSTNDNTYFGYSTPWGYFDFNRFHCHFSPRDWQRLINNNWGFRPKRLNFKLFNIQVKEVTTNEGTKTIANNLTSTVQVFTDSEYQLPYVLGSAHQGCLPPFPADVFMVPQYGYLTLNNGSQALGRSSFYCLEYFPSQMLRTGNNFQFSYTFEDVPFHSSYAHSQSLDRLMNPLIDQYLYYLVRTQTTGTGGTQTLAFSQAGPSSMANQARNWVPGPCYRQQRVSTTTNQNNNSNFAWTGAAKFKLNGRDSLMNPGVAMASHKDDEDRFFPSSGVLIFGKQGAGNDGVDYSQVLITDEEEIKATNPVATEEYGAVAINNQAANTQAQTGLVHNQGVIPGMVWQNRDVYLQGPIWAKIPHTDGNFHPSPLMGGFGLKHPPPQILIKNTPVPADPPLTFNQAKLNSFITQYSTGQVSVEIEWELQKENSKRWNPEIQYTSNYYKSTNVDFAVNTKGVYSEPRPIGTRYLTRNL"}, "[3]": {"molecular_target": "T3, AAV6 virus-like particle (VLP) (adeno-associated virus 6)", "T3 construct": "VLP self-assembled from VP1, VP2 and VP3 expressed in 293T cells; coated on ELISA plates; also called VLP of AAV6"}, "[4]": {"molecular_target": "T4, AAV2 virus-like particle (VLP) (adeno-associated virus 2, UniProt P03135 1-735; P03135 1-598; P03135 1-533)", "T4 construct": "VLP self-assembled from VP1, VP2 and VP3 expressed in 293T cells; coated on ELISA plates; also called VLP of AAV2"}, "[5]": {"molecular_target": "T5, AAV8 virus-like particle (VLP) (adeno-associated virus 8)", "T5 construct": "VLP self-assembled from VP1, VP2 and VP3 expressed in 293T cells; coated on ELISA plates; also called VLP of AAV8", "T5 VP1": "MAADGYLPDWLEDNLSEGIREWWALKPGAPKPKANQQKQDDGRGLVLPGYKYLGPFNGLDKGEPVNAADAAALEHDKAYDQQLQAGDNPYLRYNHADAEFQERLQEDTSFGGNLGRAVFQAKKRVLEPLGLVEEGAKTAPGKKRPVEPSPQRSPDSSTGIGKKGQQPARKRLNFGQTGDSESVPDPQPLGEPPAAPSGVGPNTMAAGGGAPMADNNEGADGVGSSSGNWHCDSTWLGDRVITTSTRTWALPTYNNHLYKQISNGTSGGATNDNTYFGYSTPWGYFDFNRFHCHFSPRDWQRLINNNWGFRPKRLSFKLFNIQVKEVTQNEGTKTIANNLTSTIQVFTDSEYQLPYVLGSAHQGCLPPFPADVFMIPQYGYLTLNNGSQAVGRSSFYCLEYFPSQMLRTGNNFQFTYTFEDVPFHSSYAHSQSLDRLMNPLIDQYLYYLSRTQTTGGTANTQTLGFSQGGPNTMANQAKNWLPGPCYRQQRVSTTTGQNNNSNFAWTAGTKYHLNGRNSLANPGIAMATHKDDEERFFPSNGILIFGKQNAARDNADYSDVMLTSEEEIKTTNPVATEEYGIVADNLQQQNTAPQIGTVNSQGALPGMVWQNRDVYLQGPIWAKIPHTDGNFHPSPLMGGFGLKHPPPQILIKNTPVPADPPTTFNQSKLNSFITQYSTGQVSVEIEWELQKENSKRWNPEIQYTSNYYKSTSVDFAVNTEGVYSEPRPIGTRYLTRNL"}, "[6]": {"molecular_target": "T6, AAV5 virus-like particle (VLP) (adeno-associated virus 5)", "T6 construct": "VLP self-assembled from VP1, VP2 and VP3 expressed in 293T cells; coated on ELISA plates; also called VLP of AAV5"}, "[7]": {"molecular_target": "T7, AAVDJ virus-like particle (VLP) (adeno-associated virus DJ)", "T7 construct": "VLP self-assembled from VP1, VP2 and VP3 expressed in 293T cells; coated on ELISA plates; also called VLP of AAVDJ"}, "[8]": {"molecular_target": "T8, AAV1 virus-like particle (VLP) (adeno-associated virus 1)", "T8 construct": "VLP self-assembled from VP1, VP2 and VP3 expressed in 293T cells; coated on ELISA plates; also called VLP of AAV1"}}}
{"binder": "B1", "values": [{"measurement": "EC50", "setting": "[1]", "result": 0.64, "unit": "ng/mL"}, {"measurement": "EC50", "setting": "[2]", "result": 0.51, "unit": "ng/mL"}, {"measurement": "EC50", "setting": "[3]", "result": 0.64, "unit": "ng/mL"}, {"measurement": "EC50", "setting": "[4]", "result": 0.94, "unit": "ng/mL"}, {"measurement": "EC50", "setting": "[5]", "result": 1, "unit": "ng/mL"}, {"measurement": "EC50", "setting": "[6]", "result": 1.16, "unit": "ng/mL"}, {"measurement": "EC50", "setting": "[7]", "result": 1.12, "unit": "ng/mL"}, {"measurement": "EC50", "setting": "[8]", "result": 1.03, "unit": "ng/mL"}]}
{"binder": "B2", "values": [{"measurement": "EC50", "setting": "[2]", "result": 0.93, "unit": "ng/mL"}, {"measurement": "EC50", "setting": "[3]", "result": 0.61, "unit": "ng/mL"}, {"measurement": "EC50", "setting": "[4]", "result": 0.51, "unit": "ng/mL"}, {"measurement": "EC50", "setting": "[7]", "result": 0.5, "unit": "ng/mL"}, {"measurement": "EC50", "setting": "[8]", "result": 0.79, "unit": "ng/mL"}]}
